Here are results for 6 molecules from patent US11472877 (Alector, dated 2022).

Changes are numbered by the printed parent chain.

Sequences and labels used below:
B1: T1-80 (antibody, IgG1, V domains shown)
VH: QVQLVESGGGVVQPGRSLRLSCAASGFTFSSYGMHWVRQAPGKGLEWVALIWYDGSNKYYADSVKGRFTISRDNSKNTLYLQMNSLRAEDTAVYYCARELIVGATGGLTYYYGMDVWGQGTTVTVSS
VL: EIVMTQSPATLSVSPGERATLSCRASQSVGSNLAWYQQKPGQAPRLLIYGASTRATGIPARFSGSGSGTEFTLTISSLQSEDFAVYYCQQDHDRPLTFGGGTKVEIK
notes: huIgG1; also called TI-80; ADI-19159
B2: T1-30 (antibody, IgG1, V domains shown)
VH: QLQLQESGPGLVKPSETLSLTCTVSGGSISSSSYYWGWIRQPPGKGLEWIGSIYYSGSTYYNPSLKSRVTISVDTSKNQFSLKLSSVTAADTAVYYCARGRKAAAGIDEAEYFQHWGQGTLVTVSS
VL: DIQMTQSPSSVSASVGDRVTITCRASQGISSWLAWYQQKPGKAPKLLIYAASSLQSGVPSRFSGSGSGTDFTLTISSLQPEDFATYYCQQVISFPTFGGGTKVEIK
notes: huIgG1; also called TI-30
B3: T1-31 (antibody, IgG1, V domains shown)
VH: QLQLQESGPGLVKPSETLSLTCTVSGGSISSSSYYWGWIRQPPGKGLEWIGSIYYSGSTYYNPSLKSRVTISVDTSKNQFSLKLSSVTAADTAVYYCARDRRMWDPYGMDVWGQGTTVTVSS
VL: DIQMTQSPSSLSASVGDRVTITCQASQDISNYLNWYQQKPGKAPKLLIYDASNLETGVPSRFSGSGSGTDFTFTISSLQPEDIATYYCQQYDDFPPITFGGGTKVEIK
notes: huIgG1; also called TI-31
B4: T1-29 (antibody, IgG1, V domains shown)
VH: QLQLQESGPGLVKPSETLSLTCTVSGGSISSSSYYWGWIRQPPGKGLEWIGSIYYSGSTYYNPSLKSRVTISVDTSKNQFSLKLSSVTAADTAVYYCARDGGGTAQADGAYYYGMDVWGQGTTVTVSS
VL: EIVLTQSPATLSLSPGERATLSCRASQSVSSYLAWYQQKPGQAPRLLIYDASNRATGIPARFSGSGSGTDFTLTISSLEPEDFAVYYCQQGVNYPFTFGGGTKVEIK
notes: huIgG1; also called TI-29
B5: T1-54 (antibody, IgG1, V domains shown)
VH: QVQLVQSGAEVKKPGSSVKVSCKASGGTFSSYAISWVRQAPGQGLEWMGGIIPIFGTANYAQKFQGRVTITADESTSTAYMELSSLRSEDTAVYYCARHWYALGSFDIWGQGTMVTVSS
VL: B4 VL with L4M, A51S, G91H, V92D, N93V, Y94W, F96I
notes: huIgG1; also called TI-54; ADI-19129
B6: T1-32 (antibody, IgG1, V domains shown)
VH: QLQLQESGPGLVKPSETLSLTCTVSGGSISSSSYYWGWIRQPPGKGLEWIGSIYYSGSTYYNPSLKSRVTISVDTSKNQFSLKLSSVTAADTAVYYCARDAPAVVGESPAFDIWGQGTMVTVSS
VL: DIQMTQSPSSLSASVGDRVTITCRASQSISRYLNWYQQKPGKAPKLLIYAASSLQSGVPSRFSGSGSGTDFTLTISSLQPEDFATYYCQQSLDLPFTFGGGTKVEIK
notes: huIgG1; also called TI-32

The target in one experiment is T1, mouse TREM2 on BWZ cells (mouse, UniProt Q99NH8 19-227).
T1 construct: whole, on cells; also called BWZ Mouse TREM2
T1 sequence (looked up): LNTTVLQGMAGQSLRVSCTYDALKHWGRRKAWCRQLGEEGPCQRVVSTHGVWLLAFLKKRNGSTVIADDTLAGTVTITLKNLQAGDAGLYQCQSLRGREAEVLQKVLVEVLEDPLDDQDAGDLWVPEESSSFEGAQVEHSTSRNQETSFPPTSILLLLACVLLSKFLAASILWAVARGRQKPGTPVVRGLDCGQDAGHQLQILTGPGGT
The experiment can be described thus: FACS, BWZ cells. (In general: Flow cytometry measures light scatter and fluorescence of single cells or particles in a stream.)
On to B1, for which the binding result is recorded as “no binding”.
As to B2, the binding result is given as “no binding”.
B3: the binding result was “no binding”.
Consider B4, for which the binding result was “no binding”.
Take B5: the binding result is “no binding”.
Take B6: the binding result is given as “no binding”.

The next experiment concerns the target T2, human TREM2 on BWZ cells (human, UniProt Q9NZC2 19-230).
T2 construct: whole, on cells; not tied to the cell line; also called BWZ Human TREM2
T2 sequence (looked up): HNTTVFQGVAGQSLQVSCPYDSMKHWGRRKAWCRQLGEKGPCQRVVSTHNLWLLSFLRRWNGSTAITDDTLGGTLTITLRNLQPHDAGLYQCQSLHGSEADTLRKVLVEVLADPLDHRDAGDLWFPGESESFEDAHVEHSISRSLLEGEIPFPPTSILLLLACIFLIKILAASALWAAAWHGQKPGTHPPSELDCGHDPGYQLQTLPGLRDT
Nature of the experiment: FACS, BWZ cells.
B1: the binding result is recorded as “no binding”.
For the molecule B2, the binding result is “no binding”.
For B3, the binding result is listed as “no binding”.
As to B4, the binding result was “no binding”.
Still for that read-out and setting: for B5 the value was “no binding”; for B6, “no binding”.

Another experiment deals with T2, human TREM2 on BWZ cells. The experiment can be described thus: FACS, BWZ human TREM2.
B1: the “FOB Fold Over Background” value was 1 fold.
For the molecule B2, the “FOB Fold Over Background” value amounted to 0.5 fold.
With B3, the “FOB Fold Over Background” value is 0.5 fold.
Turning to B4, the “FOB Fold Over Background” value was 0.7 fold.
For B5, the “FOB Fold Over Background” value stood at 1.1 fold.
As to B6, the “FOB Fold Over Background” value was 0.9 fold.

The next experiment addresses T1, mouse TREM2 on BWZ cells. The experiment can be described thus: FACS, BWZ mouse TREM2.
As for B1, the “FOB Fold Over Background” value is 0.9 fold.
On the same count and under the same terms, for B2 the value was 0.8 fold.
Take B3: the “FOB Fold Over Background” value was found to be 0.9 fold.
As to B4, the “FOB Fold Over Background” value was determined as 1.2 fold.
On to B5, for which the “FOB Fold Over Background” value came to 1.2 fold.
Take B6: the “FOB Fold Over Background” value was determined as 1.2 fold.

For the next experiment, the target named is T3, mouse TREM1 on CHO cells (mouse, UniProt Q9JKE2 21-230).
T3 construct: also called CHO-mT1
T3 sequence: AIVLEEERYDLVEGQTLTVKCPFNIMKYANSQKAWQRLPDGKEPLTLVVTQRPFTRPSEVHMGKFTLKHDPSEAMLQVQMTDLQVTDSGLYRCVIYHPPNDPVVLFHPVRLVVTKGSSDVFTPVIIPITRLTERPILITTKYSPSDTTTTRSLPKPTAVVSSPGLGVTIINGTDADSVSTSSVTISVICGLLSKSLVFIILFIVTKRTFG
Nature of the experiment: FACS, CHO mouse TREM1.
For B1, the “FOB Fold Over Background” value is 1.2 fold.
In the case of B2, the “FOB Fold Over Background” value came out at 453 fold.
Take B3: the “FOB Fold Over Background” value came out at 447 fold.
As to B4, the “FOB Fold Over Background” value was found to be 401 fold.
Still for that read-out and setting: for B5 the value was 3.1 fold; for B6, 380 fold.
